This note sets out measurements from patent US5792742.

Test [1] has as its target fibrin (fibrinogen dried on microtiter wells and converted with thrombin). Kind of test: competitive ELISA on fibrin-coated wells, competitor biotinylated Fn (2.3 nM). Background: ELISA stands for enzyme-linked immunosorbent assay.
Test [2] shares this target. Kind of test: competitive ELISA on fibrin-coated plates, competitor Fn (2.3 nM), 50,000 molar excess.
The target is the same in test [3]. Nature of the test: direct ELISA on fibrin-coated wells (FIGS. 27A and 28A).
For test [4] the target is unchanged. Nature of the test: direct ELISA on fibrin-coated plates (FIG. 27A).
The target is the same in test [5]. Kind of test: competitive ELISA against intact Fn on fibrin.
Test [6] shares this target. Kind of test: competitive ELISA on fibrin-coated wells, competitor biotinylated Fn (FIG. 29).
For test [7] the target is unchanged. Kind of test: competitive ELISA on fibrin-coated wells, competitor fibronectin (FIG. 29).
Test [8] has the same target. Nature of the test: competitive ELISA on fibrin-coated wells, Cheng and Prussoff equation from the IC50.
Test [9] shares this target. Kind of test: competitive ELISA on fibrin-coated wells, competitor biotinylated Fn (2.3 nM), 10 µM of the module pair.
Test [10] shares this target. Nature of the test: competitive ELISA on fibrin-coated plates, competitor Fn (2.3 nM).
Test [11] shares this target. Nature of the test: direct binding of 125I-11 kDa to fibrin-coated wells (15 ng fibrin).
For test [12] the target is unchanged. Kind of test: direct binding of 125I-11 kDa to fibrin-coated removable wells, non-linear regression, one binding site model.
Test [13] has the same target. Kind of test: competitive ELISA on fibrin-coated wells, reference intact Fn.
The target is the same in test [14]. Kind of test: competitive ELISA on fibrin-coated wells, competitor biotinylated Fn (2.3 nM), 10 µM of the fragment.
Test [15] concerns the target fibrin-SEPHAROSE (bovine fibrinogen cross-linked to CNBr-activated SEPHAROSE and converted to fibrin with human thrombin) (bovine) (UniProt P02672). Kind of test: fibrin-SEPHAROSE chromatography of 35S-labeled COS supernatant, densitometry of the autoradiogram.
The target in test [16] is fibrin (fibrinogen dried on microtiter wells and converted with thrombin). Nature of the test: competition on fibrin-coated wells, competitor 125I-11 kDa (90 nM).
The next test has as its target fibrinogen-SEPHAROSE
Nature of the test: binding to a fibrinogen-SEPHAROSE column at 37° C. (material eluted with ethylene glycol).

The target of test [17] is fibrin (fibrinogen dried on microtiter wells and converted with thrombin). Nature of the test: direct ELISA on fibrin-coated wells, reference intact fibronectin.
The target is the same in test [18]. Nature of the test: displacement of bound 125I-11 kDa from fibrin-coated wells by 2,000 nM unlabeled 11 kDa.

Take “recombinant ^10 F1 module of fibronectin (peptide)”: the % inhibition of biotinylated Fn binding in test [1] worked out at 10%.
With “recombinant ^7 F1 module of fibronectin (peptide)”, in test [2], the % inhibition of Fn binding is less than 20%.
In the case of biotinylated fibronectin, the concentration at saturation of binding in [3] worked out at 4.5 nM.
In test [1], human plasma fibronectin (intact) returned an IC50 of 20 nM and a concentration for complete inhibition of 2.2 µM. In test [4], this substance yielded a concentration at 75% of the maximum binding of 2.3 nM and a concentration at saturation of binding of 4.54 nM.
“recombinant ^4 F1.^5 F1 module pair of fibronectin (expressed in Saccharomyces cerevisiae) (peptide)” showed a % inhibition (so in the source) in test [5] of 30%. In test [6], this substance showed a maximum % inhibition of Fn binding of 67%. Further, the % blocking of fibronectin binding in test [7] came out at 36%. For the same substance, in test [8], the Ki is 695 nM. The substance also displayed an IC50 in [1] of 700 nM. The maximal % inhibition of biotinylated Fn binding in [9] was 67%. In test [10], the % inhibition of Fn binding at saturating concentration is 70%, the IC50 stood at 750 nM and the concentration at maximum inhibition stood at 10 µM.
The substance ^125 I-11 kDa fibrin-binding peptide yielded a concentration at 50% saturation in test [11] of 90 nM. Moreover, the Kd in test [12] was found to be 154 nM.
In test [13], “25.9 kDa N-terminal proteolytic fibrin-binding fragment of fibronectin (peptide)” gave a fold higher concentration than intact Fn for 50% inhibition of 7.5 fold. Moreover, in test [14], the maximal % inhibition of biotinylated Fn binding was determined as 75%. Moreover, the Ki in test [8] came out at 145 nM. In test [1], this substance returned an IC50 of 150 nM.
Regarding “^35 S-methionine labeled recombinant ^10 F1-end (expressed in COS cells) (peptide)”, in test [15], the % of bound protein released by warming to 22° C. was found to be 35% and the % of bound protein that required 6M urea for elution came out at 65%.
In the case of “11 kDa C-terminal fibrin-binding fragment of fibronectin (peptide)”, in [16], the IC50 was determined as 605 nM and the concentration at maximum inhibition was 4 µM. For the same substance, the % of the applied material bound in the test with fibrinogen-SEPHAROSE was 4 to 5%. Also, the times more bound than intact fibronectin (mole-per-mole) in test [17] was found to be 20 times. For the same substance, the % of bound iodinated 11 kDa displaced in test [18] stood at 42%.

Broadly, the IC50 is the concentration that inhibits the measured activity by half. The term Ki denotes the equilibrium dissociation constant of an inhibitor or competing ligand from its target. A low value points to higher affinity. As a reminder, the Kd is the constant that tells how readily two partners part at equilibrium. Read a high Kd as weaker binding.
